Reference: patent US20260049134A1 (UNIVERSITY OF FLORIDA RESEARCH FOUNDATION, published 2026)

Legend:
[1] = target: T1, DCC; assay: ELISA on coated DCC-His
T1 construct: coated protein in the ELISA; also called DCC-His (R&D Systems)
T1 chain: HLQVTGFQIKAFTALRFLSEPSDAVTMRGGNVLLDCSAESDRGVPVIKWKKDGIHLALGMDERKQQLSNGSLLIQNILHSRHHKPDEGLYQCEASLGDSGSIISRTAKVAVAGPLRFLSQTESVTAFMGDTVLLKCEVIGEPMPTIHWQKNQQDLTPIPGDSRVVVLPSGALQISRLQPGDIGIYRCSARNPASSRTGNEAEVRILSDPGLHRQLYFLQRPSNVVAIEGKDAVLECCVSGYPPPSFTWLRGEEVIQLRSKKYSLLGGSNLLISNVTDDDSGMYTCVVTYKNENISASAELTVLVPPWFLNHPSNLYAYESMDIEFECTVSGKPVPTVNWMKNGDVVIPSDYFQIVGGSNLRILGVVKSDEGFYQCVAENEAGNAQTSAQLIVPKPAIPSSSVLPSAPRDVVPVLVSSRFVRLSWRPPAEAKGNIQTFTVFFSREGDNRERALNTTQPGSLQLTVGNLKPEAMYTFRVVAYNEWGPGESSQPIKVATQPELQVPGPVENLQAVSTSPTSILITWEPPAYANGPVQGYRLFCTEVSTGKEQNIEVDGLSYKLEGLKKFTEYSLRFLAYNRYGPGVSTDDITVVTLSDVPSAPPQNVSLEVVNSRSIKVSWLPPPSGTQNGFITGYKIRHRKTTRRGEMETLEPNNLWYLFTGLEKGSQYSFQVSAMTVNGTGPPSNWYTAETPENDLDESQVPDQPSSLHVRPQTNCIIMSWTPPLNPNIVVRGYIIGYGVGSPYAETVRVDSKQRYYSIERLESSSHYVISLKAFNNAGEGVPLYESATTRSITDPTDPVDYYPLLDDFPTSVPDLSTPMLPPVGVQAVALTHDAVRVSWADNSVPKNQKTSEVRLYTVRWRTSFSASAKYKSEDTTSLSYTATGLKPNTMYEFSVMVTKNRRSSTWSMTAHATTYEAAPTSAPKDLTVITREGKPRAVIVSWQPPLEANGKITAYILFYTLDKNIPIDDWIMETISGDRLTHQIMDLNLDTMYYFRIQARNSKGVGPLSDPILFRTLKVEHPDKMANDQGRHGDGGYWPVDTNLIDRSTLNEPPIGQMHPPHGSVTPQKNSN
Procedure: (§1) Recombinant purified ECDs (50-150 ng) of each putative target protein were coated, incubated with 150 ng of the indicated primary antibody, and binding was detected using a peroxidase-conjugated anti-human Fab secondary antibody. Heatmap represents averages of technical triplicates. (8B) Target validation via siRNA knockdown. H929 cells were transfected with siRNA pools targeting the putative antibody targets ICAM1, CADM1, and PTPRG. Cells were then subjected to cognate IgG binding analysis via flow cytometry. (NT, non-targeting siRNA).
(§2) ELISA ELISA was conducted as described previously. Briefly, 50-150 ng of antigen was coated overnight in half-area 96-well plates at 4° C., blocked with 3% BSA at 37° C. for 1 h, and 150 ng of chimeric rabbit/human IgG1 was added, incubating for 2 h at 37° C. […] After incubating at 37° C. for 15 min-1 h (depending on intensity of controls), data were acquired using a SpectraMax M5 plate reader (Molecular Devices).

[2] = target: T2, PTP4A3 (PRL-3); assay: ELISA on coated His-PTP4A3
T2 construct: coated protein in the ELISA; also called His-PTP4A3 (R&D Systems)
T2 sequence (chain, as listed by the source limits assumed): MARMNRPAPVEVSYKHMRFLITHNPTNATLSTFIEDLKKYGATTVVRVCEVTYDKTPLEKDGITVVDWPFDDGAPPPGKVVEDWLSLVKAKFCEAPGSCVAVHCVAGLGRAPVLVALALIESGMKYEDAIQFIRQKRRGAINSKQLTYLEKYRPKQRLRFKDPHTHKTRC
Procedure: as §1, §2

[3] = target: T3, PTPRG-Fc (ECD of human PTPRG, aa 20-736, fused to human Fc gamma 1) (human, UniProt P23470 20-736); assay: ELISA on coated PTPRG-Fc, 150 ng IgG1; None 0.117
T3 construct: Made in-house in Expi293 cells; Used in ELISA and SPR; also called recombinant PTPRG-Fc; PTRPG; not shown: human IgG1 Fc (Fc gamma 1) after the hinge
T3 sequence: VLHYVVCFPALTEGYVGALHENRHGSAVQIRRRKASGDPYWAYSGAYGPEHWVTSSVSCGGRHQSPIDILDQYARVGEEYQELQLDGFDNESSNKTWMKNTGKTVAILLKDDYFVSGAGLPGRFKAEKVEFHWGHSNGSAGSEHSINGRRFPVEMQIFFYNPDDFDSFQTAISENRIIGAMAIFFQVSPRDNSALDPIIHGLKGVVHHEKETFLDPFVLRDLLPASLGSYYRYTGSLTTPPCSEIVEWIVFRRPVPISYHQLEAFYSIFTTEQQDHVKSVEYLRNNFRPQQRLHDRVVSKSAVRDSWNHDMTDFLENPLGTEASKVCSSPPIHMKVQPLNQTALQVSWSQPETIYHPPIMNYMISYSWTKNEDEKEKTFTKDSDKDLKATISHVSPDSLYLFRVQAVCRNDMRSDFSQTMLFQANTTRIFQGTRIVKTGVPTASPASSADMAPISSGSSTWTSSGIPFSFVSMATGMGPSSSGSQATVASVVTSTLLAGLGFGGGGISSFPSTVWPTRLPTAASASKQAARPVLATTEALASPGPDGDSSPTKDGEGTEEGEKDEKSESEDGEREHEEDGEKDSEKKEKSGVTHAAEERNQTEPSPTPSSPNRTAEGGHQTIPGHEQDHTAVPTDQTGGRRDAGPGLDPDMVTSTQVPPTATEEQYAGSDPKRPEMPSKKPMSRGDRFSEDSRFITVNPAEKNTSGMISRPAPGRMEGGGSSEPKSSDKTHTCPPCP
Procedure: as §1, §2

[4] = target: T2, PTP4A3 (PRL-3); assay: ELISA on coated His-PTP4A3, 150 ng IgG1; None 0.085
Procedure: as §1, §2

[5] = target: T4, SLAMF7; assay: ELISA on coated SLAMF7-StrepTag, 150 ng IgG1; None 0.047
T4 construct: coated protein in the ELISA; also called SLAMF7-StrepTag
T4 chain: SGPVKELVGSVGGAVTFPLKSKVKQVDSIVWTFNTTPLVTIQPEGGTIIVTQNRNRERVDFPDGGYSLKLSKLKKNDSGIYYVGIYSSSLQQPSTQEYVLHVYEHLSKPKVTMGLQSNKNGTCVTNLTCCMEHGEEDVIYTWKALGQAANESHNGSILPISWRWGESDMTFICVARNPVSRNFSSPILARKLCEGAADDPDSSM
Procedure: as §1, §2

B1: HW-97 chimeric rabbit-human IgG1 LA/LA/PG (antibody, V domains shown)
VH: QKQLVESGGRLVTPGTPLTLTCTVTGIDLSSHGMSWVRQAPGKGLEWIGVIYPSGSTWYASWARGRFTISKTSTTVDLKMTSLTTEDTATHFCARGDVGGADNNIWGPGTLVTVSS
VL: SFVLTQPASVQVDLGQTVSLTCTAETLSRSYASWYQQKPGQAPVLLIYRDTSRPSGVPDRFSGSSSGNTATLTISGAQAGDEADYYCATSDGSGSSYQYVFGGGTQLTVTG
notes: Fc-silenced (L234A/L235A/P329G) IgG1, lambda; Alexa Fluor 647-labeled in single-step flow cytometry; Prototype of cluster C-97
In the case of B1, the binding result [1] is reported as “no binding (tested: 150 ng IgG1 per well)”, the binding result [2] is reported as “no binding (tested: 150 ng IgG1 per well)” and the “ELISA Absorbance (405 nm-570 nm)” value [3] is reported as 0.096. For the same binder, the “ELISA Absorbance (405 nm-570 nm)” value [4] was 0.065 and the “ELISA Absorbance (405 nm-570 nm)” value [5] was 0.051.

B2: HW-113 chimeric rabbit-human IgG1 LA/LA/PG (antibody, V domains shown)
VH: QKQLVESGGGLVQPGGSLTLTCTVSGFSLNKYYMGWFRQAPGKGLEWIGVISRSGDTYYSSWAKGRFTISKASTTVDLRITSPTTEDTATYFCARDASSPGFHGDRLDLWGQGTLVTVSS
VL: SFVLTQPASVQVNLGQTVSLTCTADTLSRSYASWYQQKPGQAPVLLIYRDTSRPSGVPDRFSGSSSGNTATLTISGAQAGDEADYYCATSDGIGSNYLWVFGGGTQLTVTG
notes: Fc-silenced (L234A/L235A/P329G) IgG1, lambda; Alexa Fluor 647-labeled in single-step flow cytometry
B2 was tested, and the binding result [1] was “no binding (tested: 150 ng IgG1 per well)”, the binding result [2] was “no binding (tested: 150 ng IgG1 per well)” and the “ELISA Absorbance (405 nm-570 nm)” value [3] was 0.071. For the same binder, the “ELISA Absorbance (405 nm-570 nm)” value [4] was 0.078 and the “ELISA Absorbance (405 nm-570 nm)” value [5] was 0.048.

B3: HW-101 chimeric rabbit-human IgG1 LA/LA/PG (antibody, V domains shown)
VH: QEQLVESGGRLVTPGTPLTLTCKASGFSLGKYDMSWVRQAPGKGLEWIGTIYAGSGSTWYASWAKGRFTISKTSTTVDLKMTSLTTEDTATYFCARDFLGVNSIWGPGTLVTISS
VL: SFVLTQPASVQVNLGQTVSLTCTADTLSRSYASWYQQKPDQAPVLLIHRDTSRPSGVPDRFSGSNSGNTATLTISGAQAGDEADYYCATSDGSGSNFHFVFGGGTQLTVTG
notes: Fc-silenced (L234A/L235A/P329G) IgG1, lambda; Alexa Fluor 647-labeled in single-step flow cytometry; Cluster C-97
B3 was tested, and the binding result [1] was “no binding (tested: 150 ng IgG1 per well)”, the binding result [2] was “no binding (tested: 150 ng IgG1 per well)” and the “ELISA Absorbance (405 nm-570 nm)” value [3] was 0.097. The “ELISA Absorbance (405 nm-570 nm)” value [4] was 0.065 and the “ELISA Absorbance (405 nm-570 nm)” value [5] was 0.046.

B4: HW-81 chimeric rabbit-human IgG1 LA/LA/PG (antibody, V domains shown)
VH: QKQLVESGGGLVTPGGTLTLTCTVSGFSLSSNGVSWVRQAPGKGLEYIGLIRSIGSTYYATWAKGRFTISKTSTTVDLKITSPTTEDTATYFCARGGYRNGFKLWGPGTLVTVSS
VL: QPVLTQSPSVSAALGASAKLTCTLSSAHKTYYIEWYQQQHPGKAPRYLMQLQSDGSYTKGTGVPDRFSGSSSGADRYLIISSVQAEDEADYICGVIDSAVYVFGGGTQLTVTG
notes: Fc-silenced (L234A/L235A/P329G) IgG1, lambda; Alexa Fluor 647-labeled in single-step flow cytometry; Cluster C-45
With B4 the binding result [1] was “no binding (tested: 150 ng IgG1 per well)”, the binding result [2] was “no binding (tested: 150 ng IgG1 per well)” and the “ELISA Absorbance (405 nm-570 nm)” value [3] was 0.122. For the same binder, the “ELISA Absorbance (405 nm-570 nm)” value [4] was 0.08 and the “ELISA Absorbance (405 nm-570 nm)” value [5] was 0.054.

B5: HW-56 chimeric rabbit-human IgG1 LA/LA/PG (antibody, V domains shown)
VH: QSVKESEGGLFKPTDTLTLTCTASGFTVSTNAVTWVRQAPGNGLEYIGTIGRSGSAYFASWAKRRSTLTRDINLNTVTLKMTSLTAADTATYFCVRGSPGYRTAISIWGPGTLVTISS
VL: AVMTQTPSSTSAAVEGTVTINCQASQSISNRLSWFQQKPGQPPKLLIYQASTLASGVPSRFKGSGSGTEFTLTISGVQREDAATYYCLGSYSSSDASFGGGTKLEIKR
notes: Fc-silenced (L234A/L235A/P329G) IgG1, kappa; Alexa Fluor 647-labeled in single-step flow cytometry; Cluster C-45
B5 was tested, and the binding result [1] was “no binding (tested: 150 ng IgG1 per well)”, the binding result [2] was “no binding (tested: 150 ng IgG1 per well)” and the “ELISA Absorbance (405 nm-570 nm)” value [3] was 0.102. The “ELISA Absorbance (405 nm-570 nm)” value [4] was 0.104 and the “ELISA Absorbance (405 nm-570 nm)” value [5] was 0.074.
